From patent publication US20080187543A1

Molecular target: Recombinant myostatin
Test: cell-based or functional assay

macrophage migration towards ZAMS medium (Boyden-type chemotaxis chamber), 5 µg/ml myostatin with 350 protein at 10 and 25 µg/ml: 20 fold
Substance: 350 protein (amino acids 267-350 of bovine myostatin) (from UniProt O18836 267-350)
